Laboratory results: US20240174727A1, “LONG-ACTING NATRIURETIC PEPTIDES AND USES THEREOF” (Eli Lilly and Company, priority 2022, published 2024)
Changes are numbered by the printed parent chain. Bridge positions count the residues as written; N and C are the ends. Square brackets hold non-standard residues; d marks the D form. Ends that are not written are not given here. thioacetal = thioacetal linkage between two cysteines (intrachain bond at the bracketed Cys); βAla = NCCC(=O)O

B1: Example 88 (peptide)
peptide: EKXRSSCFGKRIDRIGHQSGLGCPSFRHGGKSSGAPPPS
modifications: HOOC-(CH2)18-CO-(γGlu)-EKEKEKG-(AEEA)4-EK-βAla-RSS[CFGKRIDRIGHQSGLGC]PSFRHGGKSSGAPPPS-NH2; thioacetal linkage between the bracketed Cys
B2: Example 89 (peptide)
peptide: B1 peptide
modifications: HOOC-(CH2)18-CO-(γGlu)-EKEKEKG-(AEEA)6-EK-βAla-RSS[CFGKRIDRIGHQSGLGC]PSFRHGGKSSGAPPPS-NH2; thioacetal linkage between the bracketed Cys
B3: Example 98 (peptide)
peptide: B1 peptide with K10G, Q18Y, G30S, K31P
modifications: HOOC-(CH2)18-CO-(γGlu)-EKEKEKG-(AEEA)6-EK-βAla-RSS[CFGGRIDRIGHYSGLGC]PSFRHGSPSSGAPPPS-NH2; thioacetal linkage between the bracketed Cys
B4: Example 7 (peptide)
peptide: B1 peptide with K10G, R11K, G30S, K31P
modifications: HOOC-(CH2)18-CO-(γGlu)-EKEKEKG-PEG24-EK-βAla-RSS[CFGGKIDRIGHQSGLGC]PSFRHGSPSSGAPPPS-NH2; thioacetal linkage between the bracketed Cys
B5: Example 6 (peptide)
peptide: EKXRSSCFGGKIDRIGHYSGLGCPSFRHGSPSSGAPPPS
modifications: HOOC-(CH2)18-CO-(γGlu)-EKEKEKG-PEG24-EK-βAla-RSS[CFGGKIDRIGHYSGLGC]PSFRHGSPSSGAPPPS-NH2; thioacetal linkage between the bracketed Cys
B6: Example 91 (peptide)
peptide: SXRRSSCFGGRIDRIGHYSGLGCPSFRHGGKSSGAPPPS
modifications: HOOC-(CH2)18-CO-(γGlu)-EKEKEKG-(AEEA)8-S-4Pal-RRSS[CFGGRIDRIGHYSGLGC]PSFRHGGKSSGAPPPS-NH2; thioacetal linkage between the bracketed Cys
B7: Example 96 (peptide)
peptide: B6 peptide with G30S, K31P
modifications: HOOC-(CH2)18-CO-(γGlu)-EKEKEKG-(AEEA)6-S-4Pal-RRSS[CFGGRIDRIGHYSGLGC]PSFRHGSPSSGAPPPS-NH2; thioacetal linkage between the bracketed Cys
B8: Example 95 (peptide)
peptide: B6 peptide
modifications: HOOC-(CH2)18-CO-(γGlu)-EKEKEKG-PEG24-S-4Pal-RRSS[CFGGRIDRIGHYSGLGC]PSFRHGGKSSGAPPPS-NH2; thioacetal linkage between the bracketed Cys
B9: Example 92 (peptide)
peptide: B6 peptide
modifications: HOOC-(CH2)18-CO-(γGlu)-EKEKEKG-(AEEA)6-S-4Pal-RRSS[CFGGRIDRIGHYSGLGC]PSFRHGGKSSGAPPPS-NH2; thioacetal linkage between the bracketed Cys

Molecular target: T1, human NPRA (human, UniProt P16066 33-1061)
T1 sequence (looked up): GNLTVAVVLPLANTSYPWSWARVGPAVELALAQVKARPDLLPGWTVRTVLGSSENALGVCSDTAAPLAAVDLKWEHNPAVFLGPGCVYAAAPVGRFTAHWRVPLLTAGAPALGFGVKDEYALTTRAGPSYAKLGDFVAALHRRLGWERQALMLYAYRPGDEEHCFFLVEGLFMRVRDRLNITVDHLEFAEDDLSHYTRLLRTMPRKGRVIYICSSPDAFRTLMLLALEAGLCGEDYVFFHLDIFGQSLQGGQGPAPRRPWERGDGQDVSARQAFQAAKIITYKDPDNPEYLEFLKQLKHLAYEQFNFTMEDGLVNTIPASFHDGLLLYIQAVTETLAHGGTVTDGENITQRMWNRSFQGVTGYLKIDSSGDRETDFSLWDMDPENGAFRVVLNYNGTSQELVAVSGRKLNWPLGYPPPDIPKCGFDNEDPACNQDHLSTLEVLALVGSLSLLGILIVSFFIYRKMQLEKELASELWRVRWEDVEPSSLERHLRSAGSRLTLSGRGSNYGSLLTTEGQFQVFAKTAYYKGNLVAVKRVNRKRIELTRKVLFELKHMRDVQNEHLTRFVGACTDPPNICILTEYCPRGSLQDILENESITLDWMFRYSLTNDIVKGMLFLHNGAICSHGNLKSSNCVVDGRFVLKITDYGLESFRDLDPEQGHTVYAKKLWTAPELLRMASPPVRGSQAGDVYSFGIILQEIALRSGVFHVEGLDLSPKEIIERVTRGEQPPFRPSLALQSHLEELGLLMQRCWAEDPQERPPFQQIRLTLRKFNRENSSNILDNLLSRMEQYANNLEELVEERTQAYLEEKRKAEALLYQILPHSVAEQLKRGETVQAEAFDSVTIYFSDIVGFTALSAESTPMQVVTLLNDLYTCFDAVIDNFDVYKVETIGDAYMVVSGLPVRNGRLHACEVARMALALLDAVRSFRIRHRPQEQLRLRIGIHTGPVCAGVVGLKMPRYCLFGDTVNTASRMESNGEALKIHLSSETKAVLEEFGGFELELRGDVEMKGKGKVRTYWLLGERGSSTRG
Test: cell-based or functional assay

Compared with B1, B2 is lower in “cGMP Assay (EC50, pM) w/BSA” value: 16300 pM for the first, 10800 pM for the second.

Going from B4 to EK[βAla]RSSCFGKRIDRIGHQSGLGCPSFRHGGKSSGAPPPS-NH2 (bridge 7-23 via thioacetal; not fully specified (N-terminus)) [Example 90], the “cGMP Assay (EC50, pM) w/BSA” value falls from 69600 pM to 19700 pM.

Compared with B5, B6 is lower in “cGMP Assay (EC50, pM) w/BSA” value: 33300 pM for the first, 13900 pM for the second.

Going from B7 to B8, the “cGMP Assay (EC50, pM) w/BSA” value falls from 12700 pM to 7030 pM.

In the case of B9, the “cGMP Assay (EC50, pM) w/BSA” value is reported as 10100 pM.

Going from B1 to B2, the “cGMP Assay (EC50, pM) w/Casein” value rises from 520 pM to 806 pM.

Compared with B3, B4 is higher in “cGMP Assay (EC50, pM) w/Casein” value: 1840 pM for the first, 5670 pM for the second.

Going from EK[βAla]RSSCFGKRIDRIGHQSGLGCPSFRHGGKSSGAPPPS-NH2 (bridge 7-23 via thioacetal; not fully specified (N-terminus)) [Example 90] to B5, the “cGMP Assay (EC50, pM) w/Casein” value rises from 452 pM to 1530 pM.

Compared with B6, B7 is lower in “cGMP Assay (EC50, pM) w/Casein” value: 1000 pM for the first, 720 pM for the second.

Going from B8 to B9, the “cGMP Assay (EC50, pM) w/Casein” value rises from 771 pM to 772 pM.

Molecular target: T2, rat NPRA (rat, UniProt P18910 29-1057)
T2 sequence (looked up): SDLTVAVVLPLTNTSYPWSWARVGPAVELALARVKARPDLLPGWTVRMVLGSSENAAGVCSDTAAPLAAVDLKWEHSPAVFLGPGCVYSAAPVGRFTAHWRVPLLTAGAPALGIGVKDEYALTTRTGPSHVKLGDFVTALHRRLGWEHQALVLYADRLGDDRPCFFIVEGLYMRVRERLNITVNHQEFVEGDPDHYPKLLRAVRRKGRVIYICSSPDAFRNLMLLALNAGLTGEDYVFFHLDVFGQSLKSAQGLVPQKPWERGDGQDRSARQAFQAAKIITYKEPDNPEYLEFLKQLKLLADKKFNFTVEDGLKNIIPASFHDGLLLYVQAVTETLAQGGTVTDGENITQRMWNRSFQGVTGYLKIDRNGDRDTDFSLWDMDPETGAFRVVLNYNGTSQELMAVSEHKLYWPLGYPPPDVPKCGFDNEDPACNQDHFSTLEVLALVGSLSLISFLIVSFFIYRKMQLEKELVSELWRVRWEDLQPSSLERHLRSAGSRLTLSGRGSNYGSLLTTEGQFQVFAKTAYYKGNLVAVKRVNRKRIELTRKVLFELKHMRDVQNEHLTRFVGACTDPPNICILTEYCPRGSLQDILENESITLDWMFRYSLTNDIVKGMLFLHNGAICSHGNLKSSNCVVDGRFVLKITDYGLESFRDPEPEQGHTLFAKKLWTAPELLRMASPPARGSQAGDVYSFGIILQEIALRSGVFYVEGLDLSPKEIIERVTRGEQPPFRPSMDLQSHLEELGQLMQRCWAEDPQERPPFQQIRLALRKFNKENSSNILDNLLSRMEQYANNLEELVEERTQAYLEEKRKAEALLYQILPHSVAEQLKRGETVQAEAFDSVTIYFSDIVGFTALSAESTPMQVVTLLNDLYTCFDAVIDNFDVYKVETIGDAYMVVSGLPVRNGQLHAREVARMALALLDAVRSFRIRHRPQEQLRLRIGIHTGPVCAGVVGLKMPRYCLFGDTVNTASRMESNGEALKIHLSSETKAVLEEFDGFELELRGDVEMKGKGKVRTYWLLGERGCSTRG
Test: cell-based or functional assay

Going from B1 to B2, the “cGMP Assay (EC50, pM) w/BSA” value falls from 1.05e+06 pM to 819000 pM.

Compared with B4, EK[βAla]RSSCFGKRIDRIGHQSGLGCPSFRHGGKSSGAPPPS-NH2 (bridge 7-23 via thioacetal; not fully specified (N-terminus)) [Example 90] is lower in “cGMP Assay (EC50, pM) w/BSA” value: 1.17e+06 pM for the first, 734000 pM for the second.

First: B5
Second: B6
The “cGMP Assay (EC50, pM) w/BSA” value of the first is higher: 596000 pM for the first, 549000 pM for the second.

Compared with B7, B8 is lower in “cGMP Assay (EC50, pM) w/BSA” value: 401000 pM for the first, 322000 pM for the second.

For B9, the “cGMP Assay (EC50, pM) w/BSA” value was 290000 pM.

First: B1
Second: B2
The “cGMP Assay (EC50, pM) w/Casein” value of the first is lower: 11400 pM for the first, 13800 pM for the second.

First: B3
Second: B4
The “cGMP Assay (EC50, pM) w/Casein” value of the first is lower: 17900 pM for the first, 184000 pM for the second.

First: EK[βAla]RSSCFGKRIDRIGHQSGLGCPSFRHGGKSSGAPPPS-NH2 (bridge 7-23 via thioacetal; not fully specified (N-terminus)) [Example 90]
Second: B5
The “cGMP Assay (EC50, pM) w/Casein” value of the first is lower: 13200 pM for the first, 30500 pM for the second.

First: B6
Second: B7
The “cGMP Assay (EC50, pM) w/Casein” value of the first is higher: 16200 pM for the first, 12200 pM for the second.

First: B8
Second: B9
The “cGMP Assay (EC50, pM) w/Casein” value of the first is lower: 12300 pM for the first, 12400 pM for the second.
